According to patent US20240293460A1 (published 2024):

Biological target: soluble DKK1 peptide P20/HLA-A2 complex (human;, UniProt P61769 21-119; O94907 20-29)
Experiment: SPR

B1: DKK1-A2 mAb HMB1 (antibody, V domains shown)
VH: QVQLKESGPGLVAPSQSLSITCTVSGFSLTDFAVTWIRQPPGKGLEWLGVIWGGGSTYYNSALKSRLSISKDNSKSQVFLKMNSLQTDDTAMYYCAKTTPIYFDYDHALDYWGQGTSVTVSS
VL: DVVVTQTPLSLPVSFGDQVSISCRSSQSLTNSYGNTYLSWYLHKPGQSPQLLIYGISNRFSGVPDRFSGSGSGTDFTLKISTIKPEDLGMYYCLQGTHQPYTFGGGTKLEIK
Q: B1 was tested. Which Kd did it give?
A: The Kd was 17.6 nM.

B2: DKK1-A2 mAb HMB7 (antibody, V domains shown)
VH: EVQLQQSGAELVKPGASVKLSCTASGFNIKDTYMHWVKQRPEQGLEWIGRIDPANGDTKYDPKFQGKATITADTSSNTAYLHLSSLTSEDTAVYYCARGRYYYGTSSFDYWGQGTTLTVSS
VL: DIVMTQSHKFMSTSVGDWVSITCKAWQDVDTAVAWYQQKPGQSPKLLIYWASTRHTGVPDRFTGSGSGTDFTLTISNVQSEDLADYFCQQYSSYPYTFGGGTKLEIK
Q: Which Kd does the source give for B2 here?
A: The Kd was 2780 nM.
